In patent US20200247894A1 (Regeneron, published 2020):

T1: Macaca fascicularis IL2Rγ extracellular domain expressed with a C-terminal myc-myc-hexahistidine tag (Macaca fascicularis)
T1 construct: also called mfIL-2Rg-MMH; mfIL-2RG-MMH
T1 chain: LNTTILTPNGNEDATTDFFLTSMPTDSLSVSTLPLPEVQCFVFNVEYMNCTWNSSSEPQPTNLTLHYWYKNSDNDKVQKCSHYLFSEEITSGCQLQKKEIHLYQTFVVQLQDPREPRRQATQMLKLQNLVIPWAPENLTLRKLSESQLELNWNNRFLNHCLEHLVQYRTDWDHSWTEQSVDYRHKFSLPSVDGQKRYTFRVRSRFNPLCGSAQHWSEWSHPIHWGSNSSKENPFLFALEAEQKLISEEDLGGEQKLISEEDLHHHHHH

T2: Human IL2Rγ extracellular domain expressed with a C-terminal myc-myc-hexahistidine tag (human)
T2 construct: also called hIL-2Rg-MMH; hIL-2RG-MMH
T2 chain: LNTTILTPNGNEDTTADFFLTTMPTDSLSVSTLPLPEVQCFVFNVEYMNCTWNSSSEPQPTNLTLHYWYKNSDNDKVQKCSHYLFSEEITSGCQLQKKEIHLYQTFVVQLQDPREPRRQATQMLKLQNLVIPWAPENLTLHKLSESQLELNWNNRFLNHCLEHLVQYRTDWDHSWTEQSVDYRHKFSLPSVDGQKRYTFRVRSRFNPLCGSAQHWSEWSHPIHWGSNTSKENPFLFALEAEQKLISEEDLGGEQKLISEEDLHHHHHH

T3: Human IL2Rγ extracellular domain expressed with a C-terminal myc-myc-hexahistidine tag (human)
T3 construct: also called hIL-2Rg-MMH; hIL-2RG-MMH
T3 chain: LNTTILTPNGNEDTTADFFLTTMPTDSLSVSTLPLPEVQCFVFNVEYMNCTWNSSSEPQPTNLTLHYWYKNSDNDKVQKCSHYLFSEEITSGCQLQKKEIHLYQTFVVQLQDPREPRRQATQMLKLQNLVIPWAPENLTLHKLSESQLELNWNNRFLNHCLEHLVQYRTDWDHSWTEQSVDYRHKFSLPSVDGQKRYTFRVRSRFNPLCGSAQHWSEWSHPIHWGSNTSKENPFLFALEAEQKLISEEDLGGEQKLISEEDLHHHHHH

T4: Macaca fascicularis IL2Rγ extracellular domain expressed with a C-terminal myc-myc-hexahistidine tag (Macaca fascicularis)
T4 construct: also called mfIL-2Rg-MMH; mfIL-2RG-MMH
T4 chain: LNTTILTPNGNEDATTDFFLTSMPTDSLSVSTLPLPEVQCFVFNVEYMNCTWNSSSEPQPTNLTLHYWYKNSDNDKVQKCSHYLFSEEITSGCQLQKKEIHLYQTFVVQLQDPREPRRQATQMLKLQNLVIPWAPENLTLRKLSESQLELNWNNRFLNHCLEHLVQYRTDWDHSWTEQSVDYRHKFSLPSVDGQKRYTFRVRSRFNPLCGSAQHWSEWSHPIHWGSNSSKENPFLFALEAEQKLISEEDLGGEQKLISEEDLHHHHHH


How the values were obtained:
[1] = biological target: T1, Macaca fascicularis IL2Rγ extracellular …; test: SPR Biacore 4000, mAb captured by anti-hFc, HBS-ET, 25C
Procedure: (§1) Equilibrium dissociation constants (KD values) for IL-2Rγ binding to purified anti-IL2Rγ monoclonal antibodies were determined using a Biacore 4000 instrument equipped with a real-time surface plasmon resonance biosensor. All binding studies were performed in 10 mM HEPES, 150 mM NaCl, 3 mM EDTA, and 0.05% v/v Surfactant Tween-20, pH 7.4 (HBS-ET) running buffer at 25° C. and 37° C. The Biacore sensor surface was first derivatized by amine coupling with a monoclonal mouse anti-human Fc antibody (GE, # BR-1008-39) to capture anti-IL2Rγ monoclonal antibodies.
(§2) The dissociation of monoclonal antibody bound IL2Rγ reagents were monitored for 8-10 minutes in HBS-ET running buffer. Kinetic association (kₐ) and dissociation (kd) rate constants were determined by fitting the real-time sensorgrams to a 1:1 binding model using Scrubber 2.0c curve fitting software. Binding dissociation equilibrium constants (KD) and dissociative half-lives (t_{1/2}) were calculated from the kinetic rate constants as: […]

[2] = biological target: T2, Human IL2Rγ extracellular domain …; test: as above
Procedure: as §1, §2

[3] = biological target: T2, Human IL2Rγ extracellular domain …; test: SPR Biacore 4000, mAb captured by anti-hFc, HBS-ET, 37C
Procedure: as §1, §2

[4] = biological target: T1, Macaca fascicularis IL2Rγ extracellular …; test: SPR Biacore 4000, mAb captured by anti-hFc, 37C, dissociation in PBS-T pH 6.0
Procedure: (§3) The dissociation rate constant (kd) for binding of IL-2Rγ reagents to purified anti-IL2Rγ monoclonal antibodies was determined using a real-time surface plasmon resonance based Biacore 4000 biosensor platform. […] The CM5 Biacore sensor surface derivatized by amine coupling with monoclonal mouse anti-human Fc antibody (GE, Catalog # BR-1008-39) was used to capture anti-IL2Rγ monoclonal antibodies expressed with human IgG4 Fc. All the IL2Rγ reagents were expressed with a C-terminal myc-myc-hexahistidine tag (subsequently referred to with a -MMH suffix). […] The dissociation of bound IL-2Rg-MMH was performed in PBS-T-pH7.4 or PBS-T-pH6.0 running buffers for 6 minutes.
(§4) Dissociation rate constants (kd) in two running buffers were determined by fitting the real-time binding sensorgrams to a 1:1 binding model using Scrubber 2.0c curve-fitting software. Values of dissociation rate for […] mAb binding to hIL-2RG-MMH and mfIL-2RG-MMH at 25° C. and 37° C. in PBS-T-pH7.4 and PBS-T-pH6.0 is shown in Table 2-1 through Table 2-8.

[5] = biological target: T1, Macaca fascicularis IL2Rγ extracellular …; test: SPR Biacore 4000, mAb captured by anti-hFc, 37C, dissociation in PBS-T pH 7.4
Procedure: as §3, §4

[6] = biological target: T3, Human IL2Rγ extracellular domain …; test: SPR, captured mAb, 25C, dissociation pH 7.4
Procedure: as §3, §4

[7] = biological target: T4, Macaca fascicularis IL2Rγ extracellular …; test: SPR, captured mAb, 25C, dissociation pH 7.4
Procedure: as §3, §4

[8] = biological target: T3, Human IL2Rγ extracellular domain …; test: SPR, captured mAb, 37C, dissociation pH 6.0
Procedure: as §3, §4

[9] = biological target: T3, Human IL2Rγ extracellular domain …; test: SPR, captured mAb, 25C, dissociation pH 6.0
Procedure: as §3, §4

[10] = biological target: T4, Macaca fascicularis IL2Rγ extracellular …; test: SPR, captured mAb, 25C, dissociation pH 6.0
Procedure: as §3, §4

[11] = biological target: T3, Human IL2Rγ extracellular domain …; test: SPR, captured mAb, 37C, dissociation pH 7.4
Procedure: as §3, §4

Binder | 100 nM Ag Bound [1] | Kd [1] | koff [1] | kon [1] | t1/2 [1] | 100 nM Ag Bound [2] | Kd [2] | koff [2] | kon [2] | t1/2 [2] | 100 nM Ag Bound [3] | Kd [3] | koff [3] | kon [3] | t1/2 [3] | 100 nM Ag Bound (RU) [4] | koff [4] | t1/2 [4] | 100 nM Ag Bound (RU) [5] | koff [5] | further results
H4H13544P2 (antibody, human IgG4 S228P, kappa, V domains shown, anti-IL2Rγ monoclonal antibody expressed with human IgG4 Fc) VH: QLQLQESGPGLVKPSETLSLTCTVSGGSISIKNYYWGWIRQPPGKGLEWIGSIYYSGTTYYNPSLKSRVTISVDTSKNQFSLKLSSVTAADTAVYHCARHGYSYGHGWFDPWGQGTLVTVSS VL: not shown | 60 RU | 24.6 nM | 0.00127 s⁻¹ | 51700 M⁻¹ s⁻¹ | 9 min | 51 RU | 28.7 nM | 0.00135 s⁻¹ | 47200 M⁻¹ s⁻¹ | 9 min | 49 RU | 103 nM | 0.00782 s⁻¹ | 76000 M⁻¹ s⁻¹ | 1.5 min | 43 RU | 0.00781 s⁻¹ | 1.5 min | 58 RU | 0.00362 s⁻¹ | t1/2 [5]: 3.2 min
H4H13538P (antibody, human IgG4 S228P, kappa, V domains shown, anti-IL2Rγ monoclonal antibody expressed with human IgG4 Fc) VH: EVQLVESGGGLVQPGGSLGLSCAASGFTFSNYAMSWVRQAPGKGLEWVSAVSGGGGGTYYADSVKGRFTISRDNSKNTVLLQMNSLRAEDTAVYYCARGRTGGLDYWGPGTLVTVSS VL: DVVMTQSPLSLPVIFGQPASISCRSSQSLVDSDGNTYLNWLQQRPGQSPRRLIYEVSNRDSGVPDRFSGSGSGTDFTLTISRVEAEDVGIYYCMQGTRWPPTFGGGTKVEIKR | 81 RU | 2.28 nM | 0.000304 s⁻¹ | 133000 M⁻¹ s⁻¹ | 38 min | 68 RU | 1.02 nM | 0.000227 s⁻¹ | 222000 M⁻¹ s⁻¹ | 51 min | 99 RU | 3.4 nM | 0.00108 s⁻¹ | 319000 M⁻¹ s⁻¹ | 11 min | 122 RU | 0.00139 s⁻¹ | 8 min | 119 RU | 0.00051 s⁻¹ | t1/2 [5]: 23 min
H4H13545P2 (antibody, human IgG4 S228P, kappa, V domains shown, anti-IL2Rgamma mAb expressed with human IgG4 Fc) VH: QVQLQQSGPGLVKPSQTLSLTCDISGDSVSSNIATWNWIRQSPSRGLEWLGRTYYRSKWYKDYAVSVKSRITINPDTSKNQFSLQVNSVTPEDTAVYYCARMTGPRYYFEYWGQGTLVTVSS VL: not shown | – | – | – | – | – | – | – | – | – | – | – | – | – | – | – | – | – | – | – | – | 100 nM Ag Bound (RU) [6]: 15 RU; koff [6]: 0.0213 s⁻¹; t1/2 [6]: 0.5 min; 100 nM Ag Bound (RU) [7]: 30 RU; koff [7]: 0.00751 s⁻¹; t1/2 [7]: 1.5 min; 100 nM Ag Bound (RU) [8]: 6 RU; 100 nM Ag Bound (RU) [9]: 11 RU; koff [9]: 0.0334 s⁻¹; t1/2 [9]: 0.3 min; 100 nM Ag Bound (RU) [10]: 20 RU; koff [10]: 0.00935 s⁻¹; t1/2 [10]: 1.2 min; 100 nM Ag Bound (RU) [11]: 7 RU
H4H13545P2 (antibody, human IgG4 S228P, kappa, V domains shown, anti-IL2Rγ monoclonal antibody expressed with human IgG4 Fc) VH: QVQLQQSGPGLVKPSQTLSLTCDISGDSVSSNIATWNWIRQSPSRGLEWLGRTYYRSKWYKDYAVSVKSRITINPDTSKNQFSLQVNSVTPEDTAVYYCARMTGPRYYFEYWGQGTLVTVSS VL: not shown | 26 RU | 143 nM | 0.014 s⁻¹ | 97800 M⁻¹ s⁻¹ | 0.8 min | 12 RU | 336 nM | 0.0575 s⁻¹ | 171000 M⁻¹ s⁻¹ | 0.2 min | 7 RU | 113 nM | 0.0691 s⁻¹ | 611000 M⁻¹ s⁻¹ | 0.2 min | 13 RU | – | – | 17 RU | – | –
